# Assay results: article PMC10786891, “Massively parallel profiling of RNA-targeting CRISPR-Cas13d”
# Substitutions are numbered along the chain they refer to. In names and notes the source's numbering stands.
# T1: EsCas13d, nuclease-dead (Eubacterium siraeum, UniProt B0MS50, R295A;H300A;R849A;H854A)
# T1 sequence: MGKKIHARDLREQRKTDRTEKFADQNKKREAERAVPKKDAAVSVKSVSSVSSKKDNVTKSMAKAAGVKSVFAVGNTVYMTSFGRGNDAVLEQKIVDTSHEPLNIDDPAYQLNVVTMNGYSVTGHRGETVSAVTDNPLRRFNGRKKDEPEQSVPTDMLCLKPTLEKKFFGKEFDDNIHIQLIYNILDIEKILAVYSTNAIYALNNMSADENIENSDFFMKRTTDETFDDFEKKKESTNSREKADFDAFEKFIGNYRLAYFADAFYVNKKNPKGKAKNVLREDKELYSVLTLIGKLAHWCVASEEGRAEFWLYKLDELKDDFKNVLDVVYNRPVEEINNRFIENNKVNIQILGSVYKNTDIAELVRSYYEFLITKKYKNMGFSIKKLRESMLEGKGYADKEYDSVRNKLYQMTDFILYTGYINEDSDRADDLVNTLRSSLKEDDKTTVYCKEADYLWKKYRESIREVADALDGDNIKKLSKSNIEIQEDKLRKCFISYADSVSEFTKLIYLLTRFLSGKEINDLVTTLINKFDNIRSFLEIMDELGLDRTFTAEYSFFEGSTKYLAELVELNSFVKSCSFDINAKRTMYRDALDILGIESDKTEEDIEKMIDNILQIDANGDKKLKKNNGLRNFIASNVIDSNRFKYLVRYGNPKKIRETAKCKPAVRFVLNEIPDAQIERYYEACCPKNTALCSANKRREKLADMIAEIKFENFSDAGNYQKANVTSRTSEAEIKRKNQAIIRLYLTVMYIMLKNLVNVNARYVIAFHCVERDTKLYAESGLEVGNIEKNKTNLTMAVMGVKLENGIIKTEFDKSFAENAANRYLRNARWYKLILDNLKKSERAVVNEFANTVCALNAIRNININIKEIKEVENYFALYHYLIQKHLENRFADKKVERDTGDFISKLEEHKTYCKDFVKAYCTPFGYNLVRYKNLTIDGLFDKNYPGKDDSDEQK
# B1: target 1 insG 3' of 16,insG 3' of 8 (mixed)
# RNA 1: CACCCGUGCAAAAAUGCAGGGGUCUAAAACUGAGCGGAUAACCUCUCUAUGG
# RNA 2: GGGAAUGGAUCCACAUCUACGAAUUCGUACCAUAGAGGAGGUUAUGCCGCUCACCGAGAUCGGAAGAGCACACGU
# B2: target 1 insC 3' of 11,insC 3' of 9 (mixed)
# RNA 1: B1 RNA 1
# RNA 2: B1 RNA 2 with G38A, A39G, G41U, U42C, U45C, G46U
# B3: target 1 C6A,C22A (mixed)
# RNA 1: B1 RNA 1
# RNA 2: GGGAAUGGAUCCACAUCUACGAAUUCGUAACAUAGAGAGGUUAUCAGCUCACCGAGAUCGGAAGAGCACACGU
# B4: target 1 insU 3' of 9,insA 3' of 3 (mixed)
# RNA 1: B1 RNA 1
# RNA 2: GGGAAUGGAUCCACAUCUACGAAUUCGUACCAUAGAGAGGUUAUUCCGCUACACCGAGAUCGGAAGAGCACACGU
# B5: target 1 insC 3' of 14,insG 3' of 8 (mixed)
# RNA 1: B1 RNA 1
# RNA 2: B1 RNA 2 with G38A, A39C
# B6: target 1 U8G,A9C (mixed)
# RNA 1: B1 RNA 1
# RNA 2: B3 RNA 2 with A30C, A43C, U44G, A46C
# B7: target 1 C7U,G12A (mixed)
# RNA 1: B1 RNA 1
# RNA 2: B3 RNA 2 with A30C, G40A, C45U, A46C
# B8: target 1 A16G,C21A (mixed)
# RNA 1: B1 RNA 1
# RNA 2: B3 RNA 2 with A30C, C31A, A36G, A46C
# B9: target 1 C7G,G15U (mixed)
# RNA 1: B1 RNA 1
# RNA 2: B3 RNA 2 with A30C, G37U, C45G, A46C
# B10: target 1 del2,del13 (mixed)
# RNA 1: B1 RNA 1
# RNA 2: GGGAAUGGAUCCACAUCUACGAAUUCGUACCAUAGAGAGUUAUCCGCUACCGAGAUCGGAAGAGCACACGU
# B11: target 1 G13A,G17A (mixed)
# RNA 1: B1 RNA 1
# RNA 2: B3 RNA 2 with A30C, G35A, G39A, A46C
# B12: target 1 insA 3' of 13,insA 3' of 7 (mixed)
# RNA 1: B1 RNA 1
# RNA 2: B1 RNA 2 with G38A, A39G, G40A, G46C, C47A
# B13: target 1 G5A,C6U (mixed)
# RNA 1: B1 RNA 1
# RNA 2: B3 RNA 2 with A30C, A46U, G47A
# B14: target 1 C4A,G12C (mixed)
# RNA 1: B1 RNA 1
# RNA 2: B3 RNA 2 with A30C, G40C, A46C, C48A
# B15: target 1 C7A,A9C (mixed)
# RNA 1: B1 RNA 1
# RNA 2: B3 RNA 2 with A30C, A43C, C45A, A46C
# B16: target 1 U3C,C7U (mixed)
# RNA 1: B1 RNA 1
# RNA 2: B3 RNA 2 with A30C, C45U, A46C, U49C
# B17: target 1 insA 3' of 3 (mixed)
# RNA 1: B1 RNA 1
# RNA 2: GGGAAUGGAUCCACAUCUACGAAUUCGUACCAUAGAGAGGUUAUCCGCUACACCGAGAUCGGAAGAGCACACGU
# B18: target 1 del19 (mixed)
# RNA 1: B1 RNA 1
# RNA 2: GGGAAUGGAUCCACAUCUACGAAUUCGUACCAAGAGAGGUUAUCCGCUCACCGAGAUCGGAAGAGCACACGU
# B19: target 1 C7G,U10A (mixed)
# RNA 1: B1 RNA 1
# RNA 2: B3 RNA 2 with A30C, U42A, C45G, A46C
# B20: target 1 insU 3' of 21,insC 3' of 13 (mixed)
# RNA 1: B1 RNA 1
# RNA 2: GGGAAUGGAUCCACAUCUACGAAUUCGUACCUAUAGAGAGCGUUAUCCGCUCACCGAGAUCGGAAGAGCACACGU
# B21: target 1 A18U,U19C (mixed)
# RNA 1: B1 RNA 1
# RNA 2: B3 RNA 2 with A30C, U33C, A34U, A46C
# B22: target 1 del1,del13 (mixed)
# RNA 1: B1 RNA 1
# RNA 2: B10 RNA 2 with A49C
# B23: target 1 insG 3' of 6,insG 3' of 1 (mixed)
# RNA 1: B1 RNA 1
# RNA 2: B4 RNA 2 with U45C, C47G, A51C, C52A, A53G
# B24: target 1 insA 3' of 21,insU 3' of 14 (mixed)
# RNA 1: B1 RNA 1
# RNA 2: B20 RNA 2 with U32A, G40U, C41G
# B25: target 1 insG 3' of 14,insU 3' of 9 (mixed)
# RNA 1: B1 RNA 1
# RNA 2: B1 RNA 2 with G38A, A39G, G46U
# B26: target 1 insA 3' of 10,insG 3' of 8 (mixed)
# RNA 1: B1 RNA 1
# RNA 2: B1 RNA 2 with G38A, A39G, G41U, U43A
# B27: target 1 insG 3' of 16,insA 3' of 11 (mixed)
# RNA 1: B1 RNA 1
# RNA 2: B1 RNA 2 with U43A, A44U, U45A, G46U
# B28: target 1 insG 3' of 18,insU 3' of 2 (mixed)
# RNA 1: B1 RNA 1
# RNA 2: B1 RNA 2 with A36G, G37A, G46C, C48G, G49C, C50U, U51C, C52U
# Target: T1, EsCas13d, nuclease-dead
# Assay: crRNA (strand 1, pre-loaded); Mg2+; 40 mM Tris-HCl pH 7.5, 150 mM NaCl, 6 mM MgCl2, 1 mM DTT, 0.1% Tween-20, 0.2 mg/ml BSA; 25 C; 10 min per concentration, then washed
# Settings: tags: His6-TwinStrep-SUMO cleaved; N-terminal SNAP kept (SNAP-Surface 488); label: 3' end held by stalled T7 RNA polymerase
row,Binder,Kd
1,B1,23.1 ± 1.9 nM
2,B2,29.4 ± 2.5 nM
3,B3,10.5 ± 0.6 nM
4,B4,13.1 ± 0.7 nM
5,B5,65 ± 11 nM
6,B6,11 ± 0.6 nM
7,B7,6.9 ± 0.4 nM
8,B8,48 ± 11 nM
9,B9,30 ± 4 nM
10,B10,11.7 ± 0.4 nM
11,B11,66 ± 19 nM
12,B12,4.06 ± 0.21 nM
13,B13,13.1 ± 0.8 nM
14,B14,31 ± 8 nM
15,B15,13.6 ± 0.9 nM
16,B16,19.6 ± 2.2 nM
17,B17,8.8 ± 0.4 nM
18,B18,26.4 ± 2.2 nM
19,B19,11.7 ± 0.5 nM
20,B20,32 ± 4 nM
21,B21,64 ± 16 nM
22,B22,25 ± 4 nM
23,B23,5.7 ± 0.4 nM
24,B24,49 ± 11 nM
25,B25,81 ± 28 nM
26,B26,10.1 ± 0.5 nM
27,B27,19.7 ± 1 nM
28,B28,84 ± 26 nM
